The record followed here is PMC9700037, “Inflammasome sensor NLRP1 disease variant M1184V promotes autoproteolysis and DPP9 complex formation by stabilizing the FIIND domain” (The Journal of Biological Chemistry, 2022).

The data set concerns the molecule itself. Description: SEC; purified full-length MBP-NLRP1, Superose 6 increase (10/300) GL, 0.5 ml/min, buffer A (25 mM Hepes pH 7.5, 150 mM NaCl, 0.5 mM TCEP, 10% glycerol); fractions checked by SDS-PAGE. A general note: In gel filtration, larger molecules generally elute earlier.

B1: MBP-NLRP1 M1184V (full length) (natural protein, human, UniProt Q9C000 1-1473, looked up)
chain: MAGGAWGRLACYLEFLKKEELKEFQLLLANKAHSRSSSGETPAQPEKTSGMEVASYLVAQYGEQRAWDLALHTWEQMGLRSLCAQAQEGAGHSPSFPYSPSEPHLGSPSQPTSTAVLMPWIHELPAGCTQGSERRVLRQLPDTSGRRWREISASLLYQALPSSPDHESPSQESPNAPTSTAVLGSWGSPPQPSLAPREQEAPGTQWPLDETSGIYYTEIREREREKSEKGRPPWAAVVGTPPQAHTSLQPHHHPWEPSVRESLCSTWPWKNEDFNQKFTQLLLLQRPHPRSQDPLVKRSWPDYVEENRGHLIEIRDLFGPGLDTQEPRIVILQGAAGIGKSTLARQVKEAWGRGQLYGDRFQHVFYFSCRELAQSKVVSLAELIGKDGTATPAPIRQILSRPERLLFILDGVDEPGWVLQEPSSELCLHWSQPQPADALLGSLLGKTILPEASFLITARTTALQNLIPSLEQARWVEVLGFSESSRKEYFYRYFTDERQAIRAFRLVKSNKELWALCLVPWVSWLACTCLMQQMKRKEKLTLTSKTTTTLCLHYLAQALQAQPLGPQLRDLCSLAAEGIWQKKTLFSPDDLRKHGLDGAIISTFLKMGILQEHPIPLSYSFIHLCFQEFFAAMSYVLEDEKGRGKHSNCIIDLEKTLEAYGIHGLFGASTTRFLLGLLSDEGEREMENIFHCRLSQGRNLMQWVPSLQLLLQPHSLESLHCLYETRNKTFLTQVMAHFEEMGMCVETDMELLVCTFCIKFSRHVKKLQLIEGRQHRSTWSPTMVVLFRWVPVTDAYWQILFSVLKVTRNLKELDLSGNSLSHSAVKSLCKTLRRPRCLLETLRLAGCGLTAEDCKDLAFGLRANQTLTELDLSFNVLTDAGAKHLCQRLRQPSCKLQRLQLVSCGLTSDCCQDLASVLSASPSLKELDLQQNNLDDVGVRLLCEGLRHPACKLIRLGLDQTTLSDEMRQELRALEQEKPQLLIFSRRKPSVMTPTEGLDTGEMSNSTSSLKRQRLGSERAASHVAQANLKLLDVSKIFPIAEIAEESSPEVVPVELLCVPSPASQGDLHTKPLGTDDDFWGPTGPVATEVVDKEKNLYRVHFPVAGSYRWPNTGLCFVMREAVTVEIEFCVWDQFLGEINPQHSWMVAGPLLDIKAEPGAVEAVHLPHFVALQGGHVDTSLFQVAHFKEEGMLLEKPARVELHHIVLENPSFSPLGVLLKMIHNALRFIPVTSVVLLYHRVHPEEVTFHLYLIPSDCSIRKAIDDLEMKFQFVRIHKPPPLTPLYMGCRYTVSGSGSGMLEILPKELELCYRSPGEDQLFSEFYVGHLGSGIRLQVKDKKDETLVWEALVKPGDLMPATTLIPPARIAVPSPLDAPQLLHFVDQYREQLIARVTSVEVVLDKLHGQVLSQEQYERVLAENTRPSQMRKLFSLSQSWDRKCKDGLYQALKETHPHLIMELWEKGSKKGLLPLSS
notes: NLRP1, human, isoform 1, residues 1-1473, codon-optimized, natural variant M1184V; More autocleaved between F1212 and S1213 than the wt; source: Sf9 insect cells, purified (MBPTrap, SEC); not shown: MBP, N-terminal, kept
As for B1, the binding result was “binds”.
